Experimental data reported in the DeepSol protein solubility set.

Assay: soluble on expression in E. coli; label from the status in PepcDB or PDB records

| Sequence | soluble on expression in E. coli |
| --- | --- |
| MVRNLVIDITKKPTQNIPPTNEIIEEAITELNVDELLDRLFEKDESGEVITPSRIAKMLEEKAFEIYKEYEKQVREAYLSAGYSREKLEQSFQQARFSRGGKAFEIIFTKLLNKFGIRYEHDRVIKIYDYITEGEKPAFIIPSVRTFLNDPSSAILITVKRKVRERWREAVGEAQILRNKFGDEINFWFVGFDEEFTIYSAIAMLDNGIDRVYVIDGRYDSLIEEIKRISDPNFNEDKYIQKIRRFSDIFDDIIQFLNKHGNKKRGKQLTLV | soluble |
| GPGSMGLTQDQTQRVKTAFLSYAQGQPKVSEAMMDQLICGAIPGLSWEQLQAKKAVRKVGADGYDLGAFFAMVNSDPAYIAFIQQHFPPAPPEQKEPEVDALALKTAKGF | soluble |
| MVSLSDLASYPICRRCAGRIFAMVGTGLTNLERGSMLEFSIKCEKNDPEFNFADPQNCEICHGIFDKFSVFLSLVEDKLKEIEYSTFVVGSVFPKEWIELENKIQEAFGAHGESIKKEFNREFGKYITAKTGKEYRKEDPDITIAVNVEYEFVNVSIKSLFIYGKYRKYRRDMPQTRWIHKKDGDSIESIIGEAALRIAGGKNYYLHGSGREDVDVRMLGNGREFVIEVEAPIMRTFDLSILSETVNRSMKGVEIFDLSFVDRKTVKEIKEEKHSKVYDCIIEGDTDIDKLKLEEACTEMNGKNIYQRTPLRVAQRRSDLIRTRKIERMELVAVEGKEAEIVVQAEAGTYIKELISGDSGRTNPSLSSKYGSQLNVKELDVIKICRGELEHHHHHH | not soluble |
| GMDNVAEYRKLIKQVLTEYDNLSRQSPETNYETCLVFDENHDNYLWLAVDWQGSKRIKYTYVHIRIKNEKIYIEEDYTEEGIATELMRLGVTNNDIVLAFHPPDVRKFTDFATA | soluble |
| MSLSEAVERQTLTIANSKAWKPYSYLDEQGQPSGILIDFWLAFGEANHVDIEFQLMDWNDSLEAVKLGKSDVQAGLIRSASRLAYLDFAEPLLTIDTQLYVHRTLLGDKLDTLLSGAINVSLGVVKGGFEQEFMQREYPQLKLIEYANNELMMSAAKRRELDGFVADTQVANFYIVVSNGAKDFTPVKFLYSEELRPAVAKGNRDLLEQVEQGFAQLSSNEKNRILSRWVHIETIYPRYLMEGHHHHHH | soluble |
| ANSFLEEMKKGHLERECMEETCSYEEAREVFEDSDKTNEFWNKYKDGDQCETSPCQNQGKCKDGLGEYTCTCLEGFEGKNCELFTRKLCSLDNGDCDQFCHEEQNSVVCSCARGYTLADNGKACIPTGPYPCGKQTLE | soluble |
| MSDLQKLQRFSTCDISDGLLNVYNIPTGGYFPNLTAISPPQNSSIVGTAYTVLFAPIDDPRPAVNYIDSVPPNSILVLALEPHLQSQFHPFIKITQAMYGGLMSTRAQYLKSNGTVVFGRIRDVDEHRTLNHPVFAYGVGSCAPKAVVKAVGTNVQLKILTSDGVTQTICPGDYIAGDNNGIVRIPVQETDISKLVTYIEKSIEVDLLVSEDIKNGIPAKQAQNDRRSVLKKYIHHHHHH | soluble |
| MKILYIILFIQIGWIFPLSAQKQDSIYIGTRHTLFSEILNEERKYWIYVPETKAGEKGKAYPVLYLLDGDSFFHSVVGFTRFFSSSKTSNLPPCIVVAVLNTDRTRDFTPTCSAARRDGTICPYDKPAGGGAEQFHRFLIEELRLEVENKVPANGTNFLVGHSYAGLFTLQTLSNHPESFDSYIAIDPSLWWDRGVFLQQAAKNVYQKDFSGKHLYVAFATRQRPAIKLIQFSLADSLKNKIIPEMKNKHLHVVYKKFPDEVHGTIALPAIFDGLKSLFHNTISTKEAT | not soluble |
| MSLAVLAPRVASVGVHSIDHFALEVPDLSAAKVFFGAFGLAVDETIDGLELRASASDHVWARVLKGSRKQLAYLSLNCFGDDLAALTAQVETAGGKPCAAHAGAHDPEGFWFEDPDGNRLQIRTGDKTSPGLKKAAVAAKVRRGLRGAAARHEAPAVHPTRLSHVLLFTPDIERAIQFYRDALGLKFSDGSKGIVAFMHGRHGSDHHLVAFVQSSAKGWHHSAWDVPTVEEVGLGKMQMARAGFVDGWGVGRHVLGSNHFHYVRDPWGSFCEYSADIDFVPPGVEWPSADHPPEDSLYLWGPDVPAYFIENTEAQREGHHHHHH | soluble |
| MGSDKIHHHHHHMFRTNPLKIIMLGPSLLQQGGISGYEKLFLEYAPSEIHICHIITHEEGTIAFKIMVFLKAIWKFIWMLISEEIDIVQLEISQRGSVFRQSIMILLAWVFHKPIILHAHGSQFHIFYAGLANWIQKLLSWIFCKCQRLIVLSESWKSFYIDTLGLKSEQVVVFYNPVKVPTEVPSRSFSTKLNLLFLGRIGQRKGAFDLIKAFSSLPTEYQTRSIMVMAGDGDIEKARDLVTTLNLQDYIQLPGWIGSDERDILLSKADIFVLPSYNEGLPLAMLEAMAWELPVIVTPVGGIPEIVTQSENGLIVNPGNVEQLSNAIKSLIENEALRLSLGAKARTSVFPLDIKKHWVDFIDLYNLVLNTMEEHSKG | not soluble |
| MQMLRNVHPVTEIQVSANMAEVRARVDFKVGAKSNIDAEILSFHGLQSDKEHVAVIFKSADTTQEAPLVRMHSECLTGDVFHSSRCDCGEQLEETITRMGQSGGIILYLRQEGRGIGLYNKIDAYRLQSQGMNTYEANNHLGFGDDLRDFTEAAQMLQALGVKKIRLVTNNPKKIRELQEHGIEIVEVVHTSAHIKDGNENYLKAKVSHGKHQLKL | not soluble |
| MSLLVQFDEFKGHSHEQFMEELDTIMLVSINKLHDNMDLRRRLLIYSVFGKVFQHRKMGILAPHGQEETF | not soluble |
| MVAVSFGAAFRETLEGSGNPQDEFEKLEFEEAYWPELYTTRGPEDDEIYQPFIGPWDYETDLPELHETQGPEDNEVYQPFPGPCFP | not soluble |
| MKTFPVSIVTPDGPVYEKEVEMVSVKAESGEMGILPGHIPTVAPLKISAVRLKNGGHTDYVAVSGGFIEVRPDKVTVLSSSAEEANHIDIHRANEAKRRAEQRMQDKQAHVDFKRAEMALQRAVNRLNVSDMK | not soluble |
| MAVPQLYYFTIRGFGEYIRLLFLDNGIKFEDIRFDYEGNEWQEFKKGMLLGQLPCLKVDGQEIVQTGAIMRHLGRVHGLNGSNEQEATFLDMFFEGVRDVRMKYVRYIYYDEGTREDCVNKTIPEALVKLEELFKAHSGDFIIGNKISYADYILFEELDVYHVLDANILDKFPTLKSFWERMWKRPNLNAYLEKRKADKVWINAIEKGMN | soluble |
| MGSDKIHHHHHHMNIDKLDYHSLIIFESISRHLNAGLVANELGMSISSVSRHLGILRDIFKDVLFIRRAQGFVLSDKAIQLLPYIKQLLHDYQVIKHNHIHFNPLTARGHFKIYAYNEFTYVINKVIHQYILPQAPNLTFEVRTLSSDCSRAIEHGEIDFAVVYERFKDHKIICEMFSPTEELFLIAKEGHAVFEDEFTLANLCQYDYFALDNYNDLPMPLLEQLGKTEGKAVNVLGATDNIAALSRHILDGRAISMSCNVFTREFYSLIKGIRTATLPSALTERLLKQITVGRTVGNYLIYSEINQSPTHHWLKQQLFNGIRDEWYLAMGR | not soluble |
| MGSDKIHHHHHHMVSHKKNDRPRPLWILKIHKRLSLFEFKRYATGIGKDDGQDISWVLKGNAKNNVYQVTVETMENCETDECKKVIWVPDELAESTGTMFEDFKEDQPQESVSSISNNEANWGSSVNELDENYEKMQKEETFDPYDSDSDTSEDSDFDEDFEDSDKTMCSGQS | not soluble |
| MSLNIKEASEKSGVSADTIRYYERIGLIPPIHRNESGVRKFGAEDLRWILFTRQMRRAGLSIEALIDYLALFREGEHTLEARAELLKKQRIELKNRIDVMQEALDRLDFKIDNYEGHHHHHH | not soluble |
| MSITLSDSAAARVNTFLANRGKGFGLRLGVRTSGCSGMAYVLEFVDEPTPEDIVFEDKGVKVVVDGKSLQFLDGTQLDFVKEGLNEGFKFTNPNVKDECGCGESFKLAAALDHHHHHH | soluble |
| MAHHHHHHMCACTYSYPRAAHGHDGTTSQLFTRKRIFTLPQLHRSYFLKLLFVQKPLSNPLLAVSLHLTFHQHHSLLGPSVACRAHKHMINYYAKCRARNHTEGEGRCLAFRGMY | not soluble |
